From paper PMC9513677, “Systematic multi‐level analysis of an organelle proteome reveals new peroxisomal functions” (Molecular Systems Biology, 2022)
Primed or numbered codes have the meaning given here. Where no end group is shown, it is not given here. FITC′ = fluorescein isothiocyanate

T1: Full‐length Saccharomyces cerevisiae Pex5 (purified, for fluorescence anisotropy) (Saccharomyces cerevisiae, UniProt P35056 1-612)
T1 construct: Pex5, peroxisomal targeting factor (PTS1 receptor), Saccharomyces cerevisiae, full length; also called purified yeast Pex5; source: expressed in autoinduction medium, purified (Ni‐NTA, TEV digestion, second Ni‐NTA, gel filtration Superdex 200)
T1 sequence (looked up): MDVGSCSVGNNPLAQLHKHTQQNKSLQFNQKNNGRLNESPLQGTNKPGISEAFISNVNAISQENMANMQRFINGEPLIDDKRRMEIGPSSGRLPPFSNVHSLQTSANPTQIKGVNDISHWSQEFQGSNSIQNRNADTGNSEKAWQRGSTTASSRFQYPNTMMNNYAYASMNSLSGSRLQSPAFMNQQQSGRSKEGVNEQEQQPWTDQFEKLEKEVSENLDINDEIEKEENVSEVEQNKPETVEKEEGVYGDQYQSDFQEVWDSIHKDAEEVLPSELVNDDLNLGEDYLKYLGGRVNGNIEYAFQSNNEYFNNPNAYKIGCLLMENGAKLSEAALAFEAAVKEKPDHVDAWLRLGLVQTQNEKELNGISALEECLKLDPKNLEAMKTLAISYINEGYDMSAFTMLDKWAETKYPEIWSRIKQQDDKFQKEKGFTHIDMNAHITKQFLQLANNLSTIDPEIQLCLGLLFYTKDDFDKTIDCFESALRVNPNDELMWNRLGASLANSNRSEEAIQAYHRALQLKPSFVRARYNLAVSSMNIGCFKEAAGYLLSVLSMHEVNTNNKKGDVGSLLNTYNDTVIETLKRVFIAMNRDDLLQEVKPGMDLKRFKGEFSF


Biological target: T1, Full‐length Saccharomyces cerevisiae …
Experiment: fluorescence polarisation; fluorescence anisotropy; FITC peptide at 10 nM, Pex5 in serial dilution; 50 mM Hepes pH 7.5, 150 mM NaCl; black 96-well plates, excitation/detection 470/530 nm; three independent experiments; binding-saturation model with one binding site
Details: both partners purified

| Kd [µM] | Binder |
| --- | --- |
| 5.5 ± 0.5 | {FITC′}-YEDKKGMCKL (tyrosine added at the N terminal of the Idp3 peptide for concentration determination; not part of Idp3; Idp3, Saccharomyces cerevisiae, carboxyl terminus with the PTS1 motif; also called PTS1 motif from Idp3; source: synthetic peptide (Genscript)) [FITC-labeled peptide of the carboxyl terminus of Idp3 (known PTS1 motif)] |
| 9.5 ± 2.9 | {FITC′}-RKRVLGVAYL (Yhl045w (Pxp3, Peroxisomal protein 3), Saccharomyces cerevisiae, the carboxyl-terminal 10 amino acids; also called Pxp3 motif; Pxp3 targeting peptide; source: synthetic peptide (Genscript)) [FITC-labeled peptide of the carboxyl‐terminal 10 amino acids of Yhl045w (Pxp3)] |
